Assay [1] has as its target MACV MBP-Z fusion protein (full-length wild-type MACV Z protein) (Machupo virus) (UniProt Q6IUF9). Put plainly: […] (20 mM Tris-HCl pH 8.0, 500 mM NaCl, 2 mM DTT), […].
Assay [2] has as its target Machupo virus (MACV) L protein (Machupo virus, UniProt Q6IUF8 1-2209). The assay is described as above. Conditions: both partners purified.

For orientation: stoichiometry N means the number of molecules, sites or subunits per partner or assembly.

Chain of Machupo virus (MACV) L protein (Q6IUF8 whole entry): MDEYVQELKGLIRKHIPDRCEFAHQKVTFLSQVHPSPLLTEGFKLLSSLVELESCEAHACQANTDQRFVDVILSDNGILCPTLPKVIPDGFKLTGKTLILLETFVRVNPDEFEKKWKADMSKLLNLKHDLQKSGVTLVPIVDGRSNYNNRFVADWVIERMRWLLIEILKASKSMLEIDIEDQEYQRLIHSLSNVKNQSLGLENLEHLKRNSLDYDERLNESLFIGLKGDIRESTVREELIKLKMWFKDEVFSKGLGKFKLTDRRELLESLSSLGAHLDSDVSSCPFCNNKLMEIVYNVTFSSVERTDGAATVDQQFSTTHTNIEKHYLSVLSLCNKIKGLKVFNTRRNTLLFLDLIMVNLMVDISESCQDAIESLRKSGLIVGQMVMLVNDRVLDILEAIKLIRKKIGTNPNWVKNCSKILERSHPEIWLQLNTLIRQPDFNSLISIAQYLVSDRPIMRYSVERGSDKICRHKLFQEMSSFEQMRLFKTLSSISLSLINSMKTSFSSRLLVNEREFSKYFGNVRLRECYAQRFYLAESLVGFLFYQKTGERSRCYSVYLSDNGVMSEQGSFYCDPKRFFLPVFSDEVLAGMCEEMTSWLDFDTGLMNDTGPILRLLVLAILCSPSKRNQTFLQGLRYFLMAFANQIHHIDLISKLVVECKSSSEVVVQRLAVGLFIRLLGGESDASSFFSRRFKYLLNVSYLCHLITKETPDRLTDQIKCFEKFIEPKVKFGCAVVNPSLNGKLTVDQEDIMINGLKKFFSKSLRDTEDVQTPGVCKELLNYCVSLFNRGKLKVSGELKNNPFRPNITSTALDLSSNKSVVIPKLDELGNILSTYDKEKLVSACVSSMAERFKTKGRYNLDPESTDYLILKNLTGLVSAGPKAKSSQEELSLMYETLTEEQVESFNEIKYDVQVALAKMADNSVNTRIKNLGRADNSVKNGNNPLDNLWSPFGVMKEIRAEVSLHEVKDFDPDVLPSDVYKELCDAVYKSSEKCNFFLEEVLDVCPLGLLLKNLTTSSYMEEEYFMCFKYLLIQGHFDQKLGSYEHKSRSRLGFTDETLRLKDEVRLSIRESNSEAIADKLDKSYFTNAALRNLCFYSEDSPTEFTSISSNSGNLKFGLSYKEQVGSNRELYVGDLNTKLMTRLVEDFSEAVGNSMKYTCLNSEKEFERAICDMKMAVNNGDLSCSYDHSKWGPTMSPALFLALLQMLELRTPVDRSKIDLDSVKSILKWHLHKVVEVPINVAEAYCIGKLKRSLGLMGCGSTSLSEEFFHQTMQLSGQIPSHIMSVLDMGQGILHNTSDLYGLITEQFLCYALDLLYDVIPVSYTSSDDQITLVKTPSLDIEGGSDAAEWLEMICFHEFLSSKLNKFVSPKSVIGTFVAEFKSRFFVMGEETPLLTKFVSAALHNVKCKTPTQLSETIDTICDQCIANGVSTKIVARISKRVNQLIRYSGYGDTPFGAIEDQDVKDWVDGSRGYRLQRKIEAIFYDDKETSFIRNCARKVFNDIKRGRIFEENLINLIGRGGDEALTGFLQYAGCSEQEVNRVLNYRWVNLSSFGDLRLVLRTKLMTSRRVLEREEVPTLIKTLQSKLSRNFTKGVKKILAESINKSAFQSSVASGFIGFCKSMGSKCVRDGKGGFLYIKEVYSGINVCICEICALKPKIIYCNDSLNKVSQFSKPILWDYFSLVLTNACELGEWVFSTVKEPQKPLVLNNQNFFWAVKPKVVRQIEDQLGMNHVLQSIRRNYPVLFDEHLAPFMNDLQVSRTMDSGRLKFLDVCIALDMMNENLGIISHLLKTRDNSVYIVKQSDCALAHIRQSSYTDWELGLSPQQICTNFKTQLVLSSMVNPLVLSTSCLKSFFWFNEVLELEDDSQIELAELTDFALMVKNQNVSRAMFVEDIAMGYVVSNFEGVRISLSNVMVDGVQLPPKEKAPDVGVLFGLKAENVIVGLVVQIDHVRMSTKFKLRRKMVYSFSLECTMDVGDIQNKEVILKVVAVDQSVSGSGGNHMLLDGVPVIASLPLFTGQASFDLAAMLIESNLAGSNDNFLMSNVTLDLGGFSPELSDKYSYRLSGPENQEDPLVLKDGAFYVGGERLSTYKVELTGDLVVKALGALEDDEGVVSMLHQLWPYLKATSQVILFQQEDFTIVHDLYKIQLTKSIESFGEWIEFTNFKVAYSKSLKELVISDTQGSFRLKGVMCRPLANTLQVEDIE

With “Machupo virus (MACV) L protein, Q6IUF8 1-2209”, in assay [1], the stoichiometry N is 1 Z:L.

B1: MACV MBP-Z fusion protein (full-length wild-type MACV Z protein) (natural protein)
chain: MGNCNKPPKRPPNTQTSAAQPSAEFRRTALPSLYGRYNCKCCWFADTNLITCNDHYLCLRCHQTMLRNSELCHICWKPLPTSITVPVEPSAPPP
As to B1, the binding result in assay [2] is “binds”.

The record behind these values is PMC8546121 (Nature Communications, 2021).
